Test results as given in publication PMC9875641, “Ophthalmic Solution of Smart Supramolecular Peptides to Capture Semaphorin 4D against Diabetic Retinopathy” (Advanced Science, 2022).

B1: TP-7 (peptide)
chain: KNKAAKG
modifications: Limits taken by convention as the full extracellular domain after the signal peptide. Species is not printed for the assayed protein; human is assumed, mouse O09126 24-733 is the alternative. Natural
B2: TP-2 (peptide)
chain: KQKRPRH
modifications: Limits taken by convention as the full extracellular domain after the signal peptide. Species is not printed for the assayed protein; human is assumed, mouse O09126 24-733 is the alternative. Natural

Biological target: soluble semaphorin 4D
Test: SPR; surface plasmon resonance imaging (SPRi) of TPs and sSema4D; who was immobilised and the conditions are not told in the main text
Conditions: both partners purified

Chain of soluble semaphorin 4D (chain, as listed by the source): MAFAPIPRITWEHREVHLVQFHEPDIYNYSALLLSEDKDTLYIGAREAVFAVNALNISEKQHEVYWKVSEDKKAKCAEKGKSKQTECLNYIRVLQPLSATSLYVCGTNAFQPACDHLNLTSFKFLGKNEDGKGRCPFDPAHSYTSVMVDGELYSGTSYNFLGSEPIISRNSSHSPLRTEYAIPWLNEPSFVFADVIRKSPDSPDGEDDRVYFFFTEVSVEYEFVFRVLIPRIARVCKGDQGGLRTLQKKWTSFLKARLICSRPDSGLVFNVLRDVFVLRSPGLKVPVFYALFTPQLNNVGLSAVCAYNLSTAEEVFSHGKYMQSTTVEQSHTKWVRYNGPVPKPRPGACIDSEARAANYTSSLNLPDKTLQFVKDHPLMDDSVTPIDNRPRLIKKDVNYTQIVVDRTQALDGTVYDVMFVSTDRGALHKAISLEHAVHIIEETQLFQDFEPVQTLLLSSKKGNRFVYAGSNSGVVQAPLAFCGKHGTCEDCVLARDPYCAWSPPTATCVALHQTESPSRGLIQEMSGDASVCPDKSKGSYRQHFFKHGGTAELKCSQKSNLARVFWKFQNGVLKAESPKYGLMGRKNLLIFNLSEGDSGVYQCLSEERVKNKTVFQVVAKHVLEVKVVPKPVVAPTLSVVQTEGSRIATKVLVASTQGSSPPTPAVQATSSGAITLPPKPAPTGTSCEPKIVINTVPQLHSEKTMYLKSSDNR

Row | Binder | Kd [nM]
1 | B1 | 14.6
2 | B2 | 41.7
